{"source": "patent US20140271457A1", "about": "(AbbVie / Abbott, published 2014)", "binders": {"B1": {"name": "DVD2699 (bispecific antibody, IgG1)", "VH": "EVQLVQSGAEVKKPGASVKVSCKASGYTFTKYWLGWVRQAPGQGLEWMGDIYPGYDYTHYNEKFKDRVTLTTDTSTSTAYMELRSLRSDDTAVYYCARSDGSSTYWGQGTLVTVSSASTKGPEVQLVESGGGLVQPGGSLRLSCAASGFTFSNYGVTWVRQAPGKGLEWVSMIWADGSTHYASSVKGRFTISRDNSKNTLYLQMNSLRAEDTAVYYCAREWQHGPVAYWGQGTLVTVSS", "VL": "DVLMTQTPLSLPVTPGEPASISCTSSQNIVHSNGNTYLEWYLQKPGQSPQLLIYKVSNRFSGVPDRFSGSGSGTDFTLKISRVEAEDVGVYYCFQVSHVPYTFGGGTKVEIKRTVAAPDIQMTQSPSSLSASVGDRVTITCRASQLVSSAVAWYQQKPGKAPKLLIYWASARHTGVPSRFSGSGSGTDFTLTISSLQPEDFATYYCQQHYKTPFTFGQGTKLEIKR"}, "B2": {"name": "DVD2701 (bispecific antibody, IgG1)", "VH": "B1 VH", "VL": "DVLMTQTPLSLPVTPGEPASISCTSSQNIVHSNGNTYLEWYLQKPGQSPQLLIYKVSNRFSGVPDRFSGSGSGTDFTLKISRVEAEDVGVYYCFQVSHVPYTFGGGTKVEIKRTVAAPSVFIFPPDIQMTQSPSSLSASVGDRVTITCRASQLVSSAVAWYQQKPGKAPKLLIYWASARHTGVPSRFSGSGSGTDFTLTISSLQPEDFATYYCQQHYKTPFTFGQGTKLEIKR"}, "B3": {"name": "DVD2702 (bispecific antibody, IgG1)", "VH": "EVQLVQSGAEVKKPGASVKVSCKASGYTFTKYWLGWVRQAPGQGLEWMGDIYPGYDYTHYNEKFKDRVTLTTDTSTSTAYMELRSLRSDDTAVYYCARSDGSSTYWGQGTLVTVSSASTKGPSVFPLAPEVQLVESGGGLVQPGGSLRLSCAASGFTFSNYGVTWVRQAPGKGLEWVSMIWADGSTHYASSVKGRFTISRDNSKNTLYLQMNSLRAEDTAVYYCAREWQHGPVAYWGQGTLVTVSS", "VL": "B1 VL"}, "B4": {"name": "DVD2743 (bispecific antibody, IgG1)", "VH": "EVQLVESGGGLVQPGGSLRLSCAASGFTFSNYGVEWVRQAPGKGLEWVSGIWADGSTHYADTVKSRFTISRDNSKNTLYLQMNSLRAEDTAVYYCAREWQHGPVAYWGQGTLVTVSSGGGGSGGGGSEVQLVQSGAEVKKPGASVKVSCKASGYTFTKYWLGWVRQAPGQGLEWMGDIYPGYDYTHYNEKFKDRVTLTTDTSTSTAYMELRSLRSDDTAVYYCARSDGSSTYWGQGTLVTVSS", "VL": "DIQMTQSPSSLSASVGDRVTITCKASQLVSSAVAWYQQKPGKAPKLLIYWASTLHTGVPSRFSGSGSGTDFTLTISSLQPEDFATYYCQQHYRTPFTFGQGTKLEIKRGGSGGGGSGDVLMTQTPLSLPVTPGEPASISCTSSQNIVHSNGNTYLEWYLQKPGQSPQLLIYKVSNRFSGVPDRFSGSGSGTDFTLKISRVEAEDVGVYYCFQVSHVPYTFGGGTKVEIKR"}, "B5": {"name": "DVD2744 (bispecific antibody, IgG1)", "VH": "EVQLVESGGGLVQPGGSLRLSCAASGFTFSNYGVEWVRQAPGKGLEWVSGIWADGSTHYADTVKSRFTISRDNSKNTLYLQMNSLRAEDTAVYYCAREWQHGPVAYWGQGTLVTVSSASTKGPEVQLVQSGAEVKKPGASVKVSCKASGYTFTKYWLGWVRQAPGQGLEWMGDIYPGYDYTHYNEKFKDRVTLTTDTSTSTAYMELRSLRSDDTAVYYCARSDGSSTYWGQGTLVTVSS", "VL": "DIQMTQSPSSLSASVGDRVTITCKASQLVSSAVAWYQQKPGKAPKLLIYWASTLHTGVPSRFSGSGSGTDFTLTISSLQPEDFATYYCQQHYRTPFTFGQGTKLEIKRTVAAPDVLMTQTPLSLPVTPGEPASISCTSSQNIVHSNGNTYLEWYLQKPGQSPQLLIYKVSNRFSGVPDRFSGSGSGTDFTLKISRVEAEDVGVYYCFQVSHVPYTFGGGTKVEIKR"}, "B6": {"name": "DVD2746 (bispecific antibody, IgG1)", "VH": "B5 VH", "VL": "DIQMTQSPSSLSASVGDRVTITCKASQLVSSAVAWYQQKPGKAPKLLIYWASTLHTGVPSRFSGSGSGTDFTLTISSLQPEDFATYYCQQHYRTPFTFGQGTKLEIKRTVAAPSVFIFPPDVLMTQTPLSLPVTPGEPASISCTSSQNIVHSNGNTYLEWYLQKPGQSPQLLIYKVSNRFSGVPDRFSGSGSGTDFTLKISRVEAEDVGVYYCFQVSHVPYTFGGGTKVEIKR"}, "B7": {"name": "DVD2747 (bispecific antibody, IgG1)", "VH": "EVQLVESGGGLVQPGGSLRLSCAASGFTFSNYGVEWVRQAPGKGLEWVSGIWADGSTHYADTVKSRFTISRDNSKNTLYLQMNSLRAEDTAVYYCAREWQHGPVAYWGQGTLVTVSSASTKGPSVFPLAPEVQLVQSGAEVKKPGASVKVSCKASGYTFTKYWLGWVRQAPGQGLEWMGDIYPGYDYTHYNEKFKDRVTLTTDTSTSTAYMELRSLRSDDTAVYYCARSDGSSTYWGQGTLVTVSS", "VL": "B5 VL"}, "B8": {"name": "DVD2748 (bispecific antibody, IgG1)", "VH": "EVQLVQSGAEVKKPGASVKVSCKASGYTFTKYWLGWVRQAPGQGLEWMGDIYPGYDYTHYNEKFKDRVTLTTDTSTSTAYMELRSLRSDDTAVYYCARSDGSSTYWGQGTLVTVSSGGGGSGGGGSEVQLVESGGGLVQPGGSLRLSCAASGFTFSNYGVEWVRQAPGKGLEWVSGIWADGSTHYADTVKSRFTISRDNSKNTLYLQMNSLRAEDTAVYYCAREWQHGPVAYWGQGTLVTVSS", "VL": "DVLMTQTPLSLPVTPGEPASISCTSSQNIVHSNGNTYLEWYLQKPGQSPQLLIYKVSNRFSGVPDRFSGSGSGTDFTLKISRVEAEDVGVYYCFQVSHVPYTFGGGTKVEIKRGGSGGGGSGDIQMTQSPSSLSASVGDRVTITCKASQLVSSAVAWYQQKPGKAPKLLIYWASTLHTGVPSRFSGSGSGTDFTLTISSLQPEDFATYYCQQHYRTPFTFGQGTKLEIKR"}, "B9": {"name": "DVD2752 (bispecific antibody, IgG1)", "VH": "B3 VH with T164E, M179G, S190D, S191T, G194S", "VL": "B1 VL with R142K, A171T, R172L, K211R"}}, "molecular_target": "Recombinant Human TNF-α/TNFSF1A (human, UniProt P01375 77-233)", "sequence (P01375 77-233 limits assumed)": "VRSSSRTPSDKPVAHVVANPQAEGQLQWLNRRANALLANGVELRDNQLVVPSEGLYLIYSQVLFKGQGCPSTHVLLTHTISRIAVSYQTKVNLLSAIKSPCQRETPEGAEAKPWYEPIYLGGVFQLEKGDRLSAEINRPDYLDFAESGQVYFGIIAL", "experiment": "cell-based or functional assay", "note": "Changes are numbered by the printed parent chain.", "data": [{"binder": "B1", "values": [{"measurement": "C-Terminal VD huTNFα Neutralization Assay IC50", "value": 0.064, "unit": "nM"}]}, {"binder": "B2", "values": [{"measurement": "C-Terminal VD huTNFα Neutralization Assay IC50", "value": 0.036, "unit": "nM"}]}, {"binder": "B3", "values": [{"measurement": "C-Terminal VD huTNFα Neutralization Assay IC50", "value": 0.106, "unit": "nM"}]}, {"binder": "B4", "values": [{"measurement": "N-Terminal VD huTNFα Neutralization Assay IC50", "value": 6, "unit": "pM"}]}, {"binder": "B5", "values": [{"measurement": "N-Terminal VD huTNFα Neutralization Assay IC50", "value": 3, "unit": "pM"}]}, {"binder": "B6", "values": [{"measurement": "N-Terminal VD huTNFα Neutralization Assay IC50", "value": 6, "unit": "pM"}]}, {"binder": "B7", "values": [{"measurement": "N-Terminal VD huTNFα Neutralization Assay IC50", "value": 3, "unit": "pM"}]}, {"binder": "B8", "values": [{"measurement": "C-Terminal VD huTNFα Neutralization Assay IC50", "value": 2.88, "unit": "nM"}]}, {"binder": "B9", "values": [{"measurement": "C-Terminal VD huTNFα Neutralization Assay IC50", "value": 0.384, "unit": "nM"}]}]}
